The results in this text go back to PMC5141385, “Small heat shock proteins sequester misfolding proteins in near-native conformation for cellular protection and efficient refolding” (Nature Communications, 2016).

B2: His6-MDH (malate dehydrogenase) (enzyme)
chain: AKVAVLGASGGIGQPLSLLLKNSPLVSRLTLYDIAHTPGVAADLSHIETRATVKGYLGPEQLPDCLKGCDVVVIPAGVPRKPGMTRDDLFNTNATIVATLTAACAQHCPDAMICIISNPVNSTIPITAEVFKKHGVYNPNKIFGVTTLDIVRANAFVAELKGLDPARVSVPVIGGHAGKTIIPLISQCTPKVDFPQDQLSTLTGRIQEAGTEVVKAKAGAGSATLSMAYAGARFVFSLVDAMNGKEGVVECSFVKSQETDCPYFSTPLLLGKKGIEKNLGIGKISPFEEKMIAEAIPELKASIKKGEEFVKNMK
notes: malate dehydrogenase (MDH), thermolabile model substrate; The aggregation, centrifugation and SEC methods say only 'MDH'; also called His6-tagged MDH; source: E. coli (derivative of MC4100), purified (Ni-IDA)
B3: MDH labelled with 7-diethylcoumarin-3-carboxylic acid (enzyme, UniProt P00346 25-338, looked up)
chain: AKVAVLGASGGIGQPLSLLLKNSPLVSRLTLYDIAHTPGVAADLSHIETRATVKGYLGPEQLPDCLKGCDVVVIPAGVPRKPGMTRDDLFNTNATIVATLTAACAQHCPDAMICIISNPVNSTIPITAEVFKKHGVYNPNKIFGVTTLDIVRANAFVAELKGLDPARVSVPVIGGHAGKTIIPLISQCTPKVDFPQDQLSTLTGRIQEAGTEVVKAKAGAGSATLSMAYAGARFVFSLVDAMNGKEGVVECSFVKSQETDCPYFSTPLLLGKKGIEKNLGIGKISPFEEKMIAEAIPELKASIKKGEEFVKNMK
modifications: 7-diethylcoumarin-3-carboxylic acid (succinimidyl ester labelling, sites not stated)
notes: malate dehydrogenase (MDH) purchased from Roche; also called labelled MDH; MDH (Roche); source: bought: Roche; labelled with 7-diethylcoumarin-3-carboxylic acid succinimidyl ester

Holding throughout (settings): both partners purified
Experiment [1] concerns the target B2. Kind of experiment: co-sedimentation; MDH (0.5 μM) denatured 60 min at 41 °C in buffer C with or without sHsps (0.1–2.5 μM); 10–50% glycerol gradient, 40,000 r.p.m., 1 h, 4 °C, and supernatant-pellet centrifugation; fractions by SDS-PAGE and western blot. (In general: A western blot detects proteins with antibodies after separation by electrophoresis.)
Experiment [2] deals with B3. Description: FRET or BRET; MDH–YFP and coumarin-labelled MDH (each 0.25 μM) mixed in preheated buffer C at 47 °C (heat-induced co-aggregation); signal at 527 nm; with or without Hsp26 or Hsp42. In general terms: Bioluminescence resonance energy transfer reports proximity on the nanometre scale.
Experiment [3] has as its target T1, Hsp42 (S. cerevisiae, UniProt Q12329 1-375).
T1 construct: Hsp42, small heat shock protein of S. cerevisiae; Cloned into pMal-c2E; the enterokinase site was changed to a PreScission site, so residues of that site may remain at the N-terminus; also called sHsp; small heat shock protein Hsp42; source: E. coli ArcticExpress, purified (amylose resin, PreScission cleavage, Sephacryl S-300); not shown: MBP, N-terminal, cleaved
Description: cross-linking; DSS cross-linking of Hsp42/MDH complexes; MDH cross-link pattern by western blot.

The target in experiment [4] is T1, Hsp42. Kind of experiment: FRET or BRET; MDH–YFP and coumarin-labelled MDH (each 0.25 μM) mixed in preheated buffer C at 47 °C (heat-induced co-aggregation); signal at 527 nm; with or without Hsp26 or Hsp42.

T1 sequence (Q12329 whole entry): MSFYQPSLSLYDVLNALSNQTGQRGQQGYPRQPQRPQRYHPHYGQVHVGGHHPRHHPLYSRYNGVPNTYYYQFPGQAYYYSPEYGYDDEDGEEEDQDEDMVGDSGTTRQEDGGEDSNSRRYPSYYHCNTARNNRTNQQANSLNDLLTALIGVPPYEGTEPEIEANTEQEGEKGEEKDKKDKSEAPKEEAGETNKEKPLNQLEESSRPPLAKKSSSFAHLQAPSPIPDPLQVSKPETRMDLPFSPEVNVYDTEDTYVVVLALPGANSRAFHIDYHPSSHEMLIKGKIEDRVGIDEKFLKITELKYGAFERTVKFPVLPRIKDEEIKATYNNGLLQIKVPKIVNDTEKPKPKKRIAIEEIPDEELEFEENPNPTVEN

B1: Hsp26 (natural protein, S. cerevisiae, UniProt P15992 1-214, looked up)
chain: MSFNSPFFDFFDNINNEVDAFNRLLGEGGLRGYAPRRQLANTPAKDSTGKEVARPNNYAGALYDPRDETLDDWFDNDLSLFPSGFGFPRSVAVPVDILDHDNNYELKVVVPGVKSKKDIDIEYHQNKNQILVSGEIPSTLNEESKDKVKVKESSSGKFKRVITLPDYPGVDADNIKADYANGVLTLTVPKLKPQKDGKNHVKKIEVSSQESWGN
notes: Hsp26, small heat shock protein of S. cerevisiae; also called sHsp; small heat shock protein Hsp26; source: E. coli (derivative of MC4100), solubilised from the pellet in 8 M urea, purified (Ni-IDA, Sephacryl S-300); not shown: His6-Smt3, N-terminal, cleaved
As to B1, the binding result in experiment [1] and in experiment [2] was “binds” each time. For the molecule B2, the binding result in the experiment with Hsp42 [3] is on record as “binds”.

In the case of B3, the binding result with Hsp42 [4] is reported as “binds”.
